Test results: publication PMC4813479, “β-Subunit Binding Is Sufficient for Ligands to Open the Integrin αIIbβ3 Headpiece” (The Journal of Biological Chemistry, 2015)

Target: full-length human αIIbβ3 on CHO K1 cells (human) (UniProt P08514)

- EC50 of LIBS1 epitope exposure on CHO cells expressing αIIbβ3 (flow cytometry, 1 mM Mg2+ and 1 mM Ca2+): 210 µM
Substance: fibronectin hexapeptide GRGDSP
